Measurements from US20200385463A1 (LANOVA MEDICINES, published 2020).
Numbering of substitutions follows the chain as printed. Numbers in names are those of the source.

B1: 4F11E2 -HC N55Q-LC S32A (antibody, V domains shown)
VH: EVQLVESGGGLVQPGGSLRLSCAASGFTFSTFGMHWVRQAPGKGLEWVSYITSGQSPIYFTDTVKGRFTISRDNAKNSLYLQMNSLRAEDTAVYYCARSSYYGNSMDYWGQGTLVTVSS
VL: DIVMTQSPDSLAVSLGERATINCRSSQSLLNAGNRKNYLTWYQQKPGQPPKLLIYWASTRESGVPDRFSGSGSGTDFTLTISSLQAEDVAVYYCQNAYSYPFTFGGGTKLEIK
B2: 4F11E2 (HC N55E/LC S32A) (antibody, V domains shown)
VH: B1 VH with Q55E
VL: B1 VL
B3: 72C1B6A3 (HC WT/LC S32A) (antibody, V domains shown)
VH: QVQLVQSGAEVKKPGASVKVSCKASGYTFTTYPIEWVRQAPGQRLEWMGNFHPYNDDTKYNEKFKGRVTITRDTSASTAYMELSSLRSEDTAVYYCARRAYGYPYAMDYWGQGTLVTVSS
VL: B1 VL with R24K, R35Q, W56R, T59S, A97D, S99I, F102Y
B4: 4F11E2 -HC N55Q-LC N31E (antibody, V domains shown)
VH: B1 VH
VL: B1 VL with N31E, A32S
B5: 72C1B6A3-HC WT-LC N31E (antibody, V domains shown)
VH: B3 VH
VL: B1 VL with R24K, N31E, A32S, R35Q, W56R, T59S, A97D, S99I, F102Y
B6: 120B7B2-HC G57D&S104A-LC-N96E&N31E (antibody, V domains shown)
VH: QVQLVQSGAEVKKPGASVKVSCKASGYTFTGYIIQWVRQAPGQRLEWMGFINPYNDDTKYNEQFKGRVTITRDTSASTAYMELSSLRSEDTAVYYCARAYFGNAFAYWGQGTLVTVSS
VL: B1 VL with R24K, N31E, A32S, R35Q, N96E, A97G, S99Y, Y100F
B7: 120B7B2 (HC G57D S104A/LC S32A G97A) (antibody, V domains shown)
VH: B6 VH
VL: B1 VL with R24K, R35Q, S99Y, Y100F
B8: 4F11E2 chimeric antibody (antibody, V domains shown)
VH: DVQLVESGGGLVQPGGSRKLSCAASGFTFSTFGMHWVRQAPEKGLEWVAYITSGNSPIYFTDTVKGRFTISRDNPKNTLFLQMTSLGSEDTAVYYCARSSYYGNSMDYWGQGTSVTVSS
VL: DIVMTQSPSSLTVTAGEKVTLTCRSSQSLLNSGNRKNYLTWYQQIPGQPPKLLIYWASTRESGVPDRFTGSGSGTYFTLTISSVQAEDLAVYYCQNAYSYPFTFGSGTKLEKK
B9: 103F6D3 chimeric antibody (antibody, V domains shown)
VH: QVQLQQSGAELARPGASVKMSCKASGYTFPTYSIHWLKQGPGQGLEWIGYINPNTIYTNYNQKFKYKTTLTADKSSSTAYIQLSSLTSDDSAVYYCAREGYGRGNAMDYWGQGTSVTVSS
VL: B8 VL with L11Q, T22S, S32G, R35Q, I45K, L79F, S99F, S106A, K112L
B10: 12F1F4 chimeric antibody (antibody, V domains shown)
VH: QVQLKESGPGLVAPSQSLSITCTVSGFSLINYGVSWVRQPPGKGLEWLGVIWGDGNTNYQSALRSRLSIRKDTSKSQVFLKLNSVHTDGTATYYCAKVGRGNAMDHWGQGISVIVSS
VL: DIVMTQSPSSLTVTARERVSMTCKSSQSLFNSGNQRNYLTWYQQKPGQPPKLLIYWSSTRESGVPDRFTGSGSGTDFTLTISSVQAEDLAIYFCQNNYYYPFTFGSGTKLEIK
B11: 64G11B4 chimeric antibody (antibody, V domains shown)
VH: QVQLHQSGTELVRPGTSVKVSCKASGYAFTNYLLEWVKQRPGQGLEWIGEINPGNGGSNYNEKFKGKATLTADKSSSTAYMQLSSLTSVDSAVYFCARIYYGNSFAYWGQGTLVTVSA
VL: DIVMTQSPSSLTVTAGEKVTMNCKSSQSLLNSGNQRNYLTWYQQKPGQPPKLLIYWASTRESGVPDRFTGSGSGTDFTLTISSVQADDLAVYYCQNDYFYPFTFGAGTNLELK
B12: 78E8G9G6 chimeric antibody (antibody, V domains shown)
VH: QVQLKESGPGLVAPSQSLSITCTVSGFSLISYGVHWVRQPPGKGLEWLGVIWAGGRTNYNSALMSRLSISKDNSKSQVFLKMNSLQTYDTAMYYCARDRYGGNSLDYWGQGTSVTVSS
VL: DIVMTQSPSSLTVTAGEKVTMNCRSIQSLLNSGNQKNYLSWYQQKPGQPPKLLIYWASTRESGVPDRFTGSGSGTDFTLTIRSVLDEDLAVYYCQNSYSYPFTFGSGTKLEMK
B13: 120B7B2 chimeric antibody (antibody, V domains shown)
VH: EVQLQQSGPELVKPGASVKMSCKASGYTFTGYIIQWMKQKPGLGLEWIGFINPYNDGTKYNEQFKGKATLTSDKSSNAAYMELSSLTSEDSAVYYCARAYFGNSFAYWGQGTLVTVSA
VL: DIVMTQSPSSLTVTAGEKVTMSCKSSQSLLNSGNQKNYLTWYQQRPGQPPKLLMYWASTRESGVPDRFTGSGSGTDFTLTISSGQAEDLAIYFCQNGYYFPFTFGSGTKLETK
B14: 72C1B6A3 chimeric antibody (antibody, V domains shown)
VH: QVQLQQSGGELVKPGASVKMSCKAFGYTFTTYPIEWMKQNHGKSLEWIGNFHPYNDDTKYNEKFKGKAKLTVEKSSSTVYLEVSRLTSDDSAVYYCARRAYGYPYAMDYWGQGTSVTVSS
VL: DIVMTQSPSSLTVTAGEKVTMSCKSSQSLLNSGNQKNYLTWYQQRPGQPPKLLIYRASSRESGVPVRFTGSGSGTDFTLTISSVQAEDLAVYYCQNDYIYPYTFGGGTKLEMN

Columns and labels:
[1] = target: Human claudin 18.2 (CLDN18.2), wild-type (human); experiment: cell-based or functional assay
[2] = target: Human claudin 18.2 (CLDN18.2), wild-type (human); experiment: cell-based or functional assay; remark: listed apart in the source

Row | Binder | EC50 (pM), ADCC Reporter Bioassay (luciferase, Jurkat effector cells) [1] | EC50 (pM), ADCC Reporter Bioassay (luciferase; Jurkat effector cells with FcγRIIIa V158 and NFAT response element) [2]
1 | B1 | 414 pM | 
2 | B2 | 148 pM | 
3 | B3 | 190 pM | 
4 | B4 | 238 pM | 
5 | B5 | 1650 pM | 
6 | B6 | 493 pM | 
7 | B7 | 114 pM | 
8 | B8 |  | 22.2 pM
9 | B9 |  | 79.5 pM
10 | B10 |  | 36.8 pM
11 | B11 |  | 126 pM
12 | B12 |  | 15.9 pM
13 | B13 |  | 5.81 pM
14 | B14 |  | 46.3 pM
